Experimental data taken from patent US7037662 (dated 2006).

Columns and labels:
[1] = molecular target: T1, soluble HEK (sHEK), complete extracellular domain (exodomain) of HEK encoded by exons I-VII (human, UniProt P29320 21-541); assay: BIAcore, LERK 7-FLAG over immobilised sHEK, single component model
T1 construct: extracellular domain; Untagged soluble exodomain from CHO cells; also called HEK exodomain
T1 sequence (looked up): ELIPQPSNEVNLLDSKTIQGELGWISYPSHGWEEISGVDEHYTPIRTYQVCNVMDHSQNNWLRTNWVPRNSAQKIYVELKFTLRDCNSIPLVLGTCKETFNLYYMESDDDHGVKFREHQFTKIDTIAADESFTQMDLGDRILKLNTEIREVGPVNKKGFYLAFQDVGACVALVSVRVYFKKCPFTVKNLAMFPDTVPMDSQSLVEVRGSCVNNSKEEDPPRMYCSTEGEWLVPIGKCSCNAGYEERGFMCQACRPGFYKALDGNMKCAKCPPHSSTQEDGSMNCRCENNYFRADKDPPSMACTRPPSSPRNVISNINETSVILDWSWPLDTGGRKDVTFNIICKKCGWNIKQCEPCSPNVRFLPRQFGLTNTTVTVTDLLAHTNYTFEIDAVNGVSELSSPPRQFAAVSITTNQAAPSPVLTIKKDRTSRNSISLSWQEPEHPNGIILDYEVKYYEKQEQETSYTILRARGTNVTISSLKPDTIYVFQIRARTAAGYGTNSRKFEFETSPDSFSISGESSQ
Method: (§1) The binding of various HEK constructs and derived peptides was analysed on the BIAcore optical biosensor (Pharmacia Biosensor, Sweden) using purified soluble HEK (corresponding to the entire extracellular domain) or LERK 7-FLAG derivatised CM 5 sensor chips and the interaction kinetics determined. The immobilization of HEK onto the sensor chip surface was performed essentially as described by Lackmann et al, 1996. LERK7-FLAG (47 μg/ml in 20 mM sodium acetate, pH 4.5) was coupled at 5 μl/min onto N-hydroxysuccinimide (NHS, 0.05 M)/N-hydroxysuccinimide-N-ethyl-N'-([…]) carbodiimide(EDC, 0.2 M) activated sensor chips (45 μl, 2 μl/min) to yield an increase in the response level of 2500–3000 response units (RU).
(§2) Figures 5A, 5B: FIG. 5: Binding curves for the interaction of monovalent LERK-FLAG fusion proteins with immobilised sHEK. Homogeneous preparations of CHO cell-derived LERK 3-FLAG (panel A) or LERK 7-FLAG (panel B) at increasing concentrations (8.22, 16.44, 32.88, 65.75, 131.5, 263, 526 nM) of LERK3-FLAG, and (1.25, 2.5, 5, 10, 20, 40, 80 nM) LERK7-FLAG were injected across an sHEK-derivatised sensor surface. BIAcore data for the association and dissociation phases were used to estimate corresponding kinetic rate constants on the basis of a one-to-one interaction model. (panel C). […]

[2] = molecular target: T1, soluble HEK (sHEK), complete …; assay: BIAcore, apparent KD from kinetic rate constants, immobilised sHEK
Method: as §1, §2

[3] = molecular target: T1, soluble HEK (sHEK), complete …; assay: BIAcore, monovalent ligand constructs on HEK; reference LERK 3-FLAG
[4] = molecular target: T1, soluble HEK (sHEK), complete …; assay: BIAcore, LERK-FLAG over immobilised HEK; reference LERK 3-FLAG
[5] = molecular target: T1, soluble HEK (sHEK), complete …; assay: BIAcore, apparent KD from kinetic constants, sHEK over sensor chip-immobilised LERK 7; sHEK over sensor chip-immobilised LERK 7
Method: as §1
(§3) Figure 2D: FIG. 2D: sHEK proteins at increasing concentrations (15.6–500 nM) were injected onto LERK 7-derivatised sensor chips and the association rate constants, (M) derived from BIAcore raw data using the BIA evaluation software as described in *Materials and Methods*. Figure 2E: FIG. 2E; The kinetic rate constants were then used to estimate apparent dissociation constants according to K_D=kd/ka. The mean and standard deviation from estimates at five different concentrations are shown (dark shading). In addition, equilibrium responses were used to estimate the apparent equilibrium dissociation constants (light shading).

[6] = molecular target: T2, HEK I-VII (N-terminally FLAG-tagged HEK exodomain, exons I-VII) (human, UniProt P29320 21-541); assay: BIAcore, apparent KD from kinetic constants, HEK I-VII over sensor chip-immobilised LERK 7
T2 construct: extracellular domain; CHO cell product; in the zebrafish experiments expressed from injected mRNA; also called HEK-FLAG
T2 sequence (looked up): T1 sequence (looked up)
Method: as §1, §3

koff [1]: 0.0061 s⁻¹
kon [1]: 480000 M⁻¹ s⁻¹
Kd [2]: 12 nM
fold more avid than LERK3 [3]: 50 fold
fold lower off rate than LERK3-FLAG [4]: 40 fold
Kd [5]: 72 nM
Kd [6]: 62 nM
B1: LERK 7-FLAG (monovalent LERK7/AL-1 with N-terminal FLAG peptide) (ligand, human, UniProt P52803 21-203, looked up, not shown: small tags and cut ends)
chain: QDPGSKAVADRYAVYWNSSNPRFQRGDYHIDVCINDYLDVFCPHYEDSVPEDKTERYVLYMVNFDGYSACDHTSKGFKRWECNRPHSPNGPLKFSEKFQLFTPFSLGFEFRPGREYFYISSAIPDNGRRSCLKLKVFVRPTNSCMKTIGVHDRVFDVNDKVENSLEPADDTVHESAEPSRGEN
notes: domain: mature protein stopped before the hydrophobic tail; also called soluble LERK7
